Earlier results, collected in paper PMC7605336.

Target: Spike protein RBD (SARS-CoV-2) (UniProt P0DTC2)

For “SBP1 (ACE2 α1 helix-derived 23-mer peptide) α1 helix (from UniProt Q9BYF1)”, the Kd is listed as 47 nM.
